{"source": "patent US20160250307A1", "about": "(IMMATICS BIOTECHNOLOGIES, published 2016)"}
{"biological_target": "HLA-A*02 (human)", "assay": "UV-ligand exchange, anti-b2m ELISA; grade: exchange yield >=75%", "units": {"peptide exchange yield": "%"}}
{"binder": "ALDAGAVYTL", "peptide exchange yield": "≥ 75"}
{"binder": "ILADLNLSV", "peptide exchange yield": "≥ 75"}
{"binder": "ALNAVRLLV", "peptide exchange yield": "≥ 75"}
{"binder": "KIAELLENV", "peptide exchange yield": "≥ 75"}
{"binder": "NLAEVVERV", "peptide exchange yield": "≥ 75"}
{"binder": "SLSAFLPSL", "peptide exchange yield": "≥ 75"}
{"binder": "LIGEFLEKV", "peptide exchange yield": "≥ 75"}
{"binder": "VMQDPEFLQSV", "peptide exchange yield": "≥ 75"}
{"binder": "KLGAVFNQV", "peptide exchange yield": "≥ 75"}
{"binder": "ALLELDEPLVL", "peptide exchange yield": "≥ 75"}
{"binder": "ALQDQLVLV", "peptide exchange yield": "≥ 75"}
{"binder": "KLFEEIREI", "peptide exchange yield": "≥ 75"}
{"binder": "NLIDLDDLYV", "peptide exchange yield": "≥ 75"}
{"binder": "TLGQFYQEV", "peptide exchange yield": "≥ 75"}
{"binder": "WLIEDGKVVTV", "peptide exchange yield": "≥ 75"}
{"binder": "ALYGRLEVV", "peptide exchange yield": "≥ 75"}
{"binder": "LLYEGKLTL", "peptide exchange yield": "≥ 75"}
{"binder": "TVGGSEILFEV", "peptide exchange yield": "≥ 75"}
{"binder": "TLGQIWDV", "peptide exchange yield": "≥ 75"}
{"binder": "KLLDTMVDTFL", "peptide exchange yield": "≥ 75"}
{"binder": "RLFADILNDV", "peptide exchange yield": "≥ 75"}
{"binder": "ALSQVTLLL", "peptide exchange yield": "≥ 75"}
{"binder": "LLLDKLILL", "peptide exchange yield": "≥ 75"}
{"binder": "RIAGIRGIQGV", "peptide exchange yield": "≥ 75"}
{"binder": "GLAFSLNGV", "peptide exchange yield": "≥ 75"}
{"binder": "ALPTVLVGV", "peptide exchange yield": "≥ 75"}
{"binder": "RVIEHVEQV", "peptide exchange yield": "≥ 75"}
{"binder": "LLFPHPVNQV", "peptide exchange yield": "≥ 75"}
{"binder": "KLLDLETERILL", "peptide exchange yield": "≥ 75"}
{"binder": "AMGEKSFSV", "peptide exchange yield": "≥ 75"}
{"binder": "KLSNVLQQV", "peptide exchange yield": "≥ 75"}
{"binder": "RLFNDPVAMV", "peptide exchange yield": "≥ 75"}
{"binder": "VLIGSNHSL", "peptide exchange yield": "≥ 75"}
{"binder": "KLYQEVEIASV", "peptide exchange yield": "≥ 75"}
{"binder": "ALLETNPYLL", "peptide exchange yield": "≥ 75"}
{"binder": "GLLSGLDIMEV", "peptide exchange yield": "≥ 75"}
{"binder": "SLLEEPNVIRV", "peptide exchange yield": "≥ 75"}
{"binder": "KIADFELPTI", "peptide exchange yield": "≥ 75"}
{"binder": "SVYDGKLLI", "peptide exchange yield": "≥ 75"}
{"binder": "KIQEILTQV", "peptide exchange yield": "≥ 75"}
{"binder": "VLGEVKVGV", "peptide exchange yield": "≥ 75"}
{"binder": "ALQDAIRQL", "peptide exchange yield": "≥ 75"}
{"binder": "LLLGERVAL", "peptide exchange yield": "≥ 75"}
{"binder": "ALLGKLDAI", "peptide exchange yield": "≥ 75"}
{"binder": "KLLDEVTYLEA", "peptide exchange yield": "≥ 75"}
{"binder": "ALTSISAGV", "peptide exchange yield": "≥ 75"}
{"binder": "ALLEADVNIKL", "peptide exchange yield": "≥ 75"}
{"binder": "AVIGGLIYV", "peptide exchange yield": "≥ 75"}
{"binder": "VLMDKLVEL", "peptide exchange yield": "≥ 75"}
{"binder": "RLIDLHTNV", "peptide exchange yield": "≥ 75"}
{"binder": "YLEPYLKEV", "peptide exchange yield": "≥ 75"}
{"binder": "SLLPQLIEV", "peptide exchange yield": "≥ 75"}
{"binder": "QLHDFVMSL", "peptide exchange yield": "≥ 75"}
{"binder": "QLIEVSSPITL", "peptide exchange yield": "≥ 75"}
{"binder": "ALTSVVVTL", "peptide exchange yield": "≥ 75"}
{"binder": "ALAEALKEV", "peptide exchange yield": "≥ 75"}
{"binder": "KVLDKVFRA", "peptide exchange yield": "≥ 75"}
{"binder": "ILSPLSVAL", "peptide exchange yield": "≥ 75"}
{"binder": "GLFAPLVFL", "peptide exchange yield": "≥ 75"}
{"binder": "LLIDVVTYL", "peptide exchange yield": "≥ 75"}
{"binder": "TLPDFRLPEI", "peptide exchange yield": "≥ 75"}
{"binder": "YIHNILYEV", "peptide exchange yield": "≥ 75"}
{"binder": "GLSNLGIKSI", "peptide exchange yield": "≥ 75"}
{"biological_target": "HLA-A*02 (human)", "assay": "UV-ligand exchange, anti-b2m ELISA; grade: exchange yield >=50%", "units": {"peptide exchange yield": "%"}}
{"binder": "HLTEAIQYV", "peptide exchange yield": "50 to 75"}
{"binder": "KLKETIQKL", "peptide exchange yield": "50 to 75"}
{"binder": "KILEETLYV", "peptide exchange yield": "50 to 75"}
{"binder": "GLYGRTIEL", "peptide exchange yield": "50 to 75"}
{"binder": "KLFSGDELLEV", "peptide exchange yield": "50 to 75"}
{"binder": "GVLPGLVGV", "peptide exchange yield": "50 to 75"}
{"binder": "GLLDPNVKSIFV", "peptide exchange yield": "50 to 75"}
{"binder": "KIDEKNFVV", "peptide exchange yield": "50 to 75"}
{"binder": "ILADTFIGV", "peptide exchange yield": "50 to 75"}
{"binder": "GLIHLEGDTV", "peptide exchange yield": "50 to 75"}
{"binder": "KLHEEIDRV", "peptide exchange yield": "50 to 75"}
